# In paper PMC5512577 (Nature Communications, 2016):
# Ends that are not written are not given here. * marks the point of attachment. FITC = O=C1OC2(c3ccc(O)cc3Oc3cc(O)ccc32)c2ccc(NC(=S)*)cc21; Farnesyl = CC(C)=CCC/C(C)=C/CC/C(C)=C/C*; Far = not defined here
# B1: phosphodiesterase 6 delta subunit (PDE6δ), N-terminal histidine-tagged (natural protein)
# chain: MSAKDERAREILRGFKLNWMNLRDAETGKILWQGTEDLSVPGVEHEARVPKKILKCKAVSRELNFSSTEQMEKFRLEQKVYFKGQCLEEWFFEFGFVIPNSTNTWQSLIEAAPESQMMPASVLTGNVIIETKFFDDDLLVSTSRVRLFYV
# notes: PDE6δ, the delta subunit of phosphodiesterase 6; the PDE6δ of PDB 3T5G was the search model for the structure solved here (5F2U); also called PrBP/PDE6δ; source: E. coli BL21-CodonPlus(DE3)-RIL, purified (Ni-NTA, gel filtration)
# B2: TAMRA-labelled farnesylated and carboxy-methylated C-terminal peptide of INPP5E (residues 637-644) (peptide)
# peptide: SQNSSTIC(Farnesyl)-OMe
# modifications: also: TAMRA label, position not given here
# notes: C-terminal peptide of inositol polyphosphate 5'-phosphatase E (INPP5E), printed as residues 637-644 with the farnesylated Cys644; also called INPP5E peptide; TAMRA-labelled INPP5E peptide; source: synthetic peptide, bought: JPT
# B3: Rheb(SI) peptide (K178S/S180I), farnesylated and carboxy-methylated (peptide)
# peptide: SQGSSIC(Far)-OMe
# modifications: reading uncertain
# notes: C-terminal peptide of Rheb with the -1 and -3 residues swapped to those of INPP5E; Unlabelled; also called SQGSSIC(Far)-OMe; source: synthetic peptide, bought: CambridgePeptides
# B4: full-length Arl2, C-terminal histidine-tagged, bound to GppNHp or mantGppNHp (natural protein, UniProt Q9D0J4 1-184, looked up)
# chain: MGLLTILKKMKQKERELRLLMLGLDNAGKTTILKKFNGEDVDTISPTLGFNIKTLEHRGFKLNIWDVGGQKSLRSYWRNYFESTDGLIWVVDSADRQRMQDCQRELQSLLVEERLAGATLLIFANKQDLPGALSCNAIQEALELDSIRSHHWRIQGCSAVTGEDLLPGIDWLLDDISSRVFTAD
# notes: Loaded with GppNHp (release assays) or mantGppNHp (kinetics with PDE6δ); Species surmised as mouse from earlier work of the same laboratory; the human protein is P36404; also called Arl2^fl; Arl2·GppNHp; source: E. coli BL21-CodonPlus(DE3)-RIL, purified (Ni-NTA, gel filtration)
# B5: FITC-labelled farnesylated and carboxy-methylated C-terminal peptide of Rheb (residues 175-181) (peptide)
# peptide: {FITC}-SQGKSSC(Far)-OMe
# modifications: reading uncertain
# notes: also called Rheb peptide; Fluorescein-SQGKSSC(Far)-OMe; source: synthetic peptide, bought: JPT
# Legend:
# Details in all cases: both partners purified
# [1] = biological target: B2; test: fluorescence polarisation; stopped flow; complex of 1 μM PDE6δ with 0.2 μM labelled peptide mixed with 100-fold excess of unlabelled peptide and 10 μM Arl3·GppNHp; 20 °C
# [2] = biological target: T1, full-length Arl3, C-terminal histidine-tagged, bound to GppNHp or mantGppNHp (UniProt Q9WUL7 1-182); test: fluorescence polarisation; stopped flow; kon: 0.2 μM mantGppNHp-loaded Arl protein with increasing PDE6δ; koff: 2 μM PDE6δ with 0.2 μM mantGppNHp-loaded Arl protein mixed with 200-fold excess of unlabelled Arl protein; Kd=koff/kon; 20 °C
# T1 construct: Loaded with the non-hydrolysable GTP analogue GppNHp (release assays) or mantGppNHp (kinetics with PDE6δ); Species surmised as mouse from earlier work of the same laboratory; the human protein is P36405; also called Arl3^fl; Arl3·GppNHp; source: E. coli BL21-CodonPlus(DE3)-RIL, purified (Ni-NTA, gel filtration)
# [3] = biological target: T2, N-terminally truncated Arl3 (aa 18-177), bound to GppNHp or mantGppNHp (UniProt Q9WUL7 18-177); test: as above
# T2 construct: Arl3 residues 18-177, without the N-terminal helix; Species surmised as mouse from earlier work of the same laboratory; also called Arl3^ΔN; source: E. coli BL21-CodonPlus(DE3)-RIL, purified (GSH column, tag cleaved, gel filtration); not shown: GST, N-terminal, cleaved
# [4] = biological target: B4; test: as above
# [5] = biological target: T3, N-terminally truncated Arl2 (aa 17-178), bound to mantGppNHp (UniProt Q9D0J4 17-178); test: as above
# T3 construct: Arl2 residues 17-178; Species surmised as mouse from earlier work of the same laboratory; also called Arl2^ΔN; source: E. coli BL21-CodonPlus(DE3)-RIL, purified (GSH column, tag cleaved, gel filtration); not shown: GST, N-terminal, cleaved
# [6] = biological target: B1; test: fluorescence polarisation; 0.01 μM TAMRA-labelled INPP5E peptide or 0.5 μM FITC-labelled Rheb peptide titrated with increasing PDE6δ; 20 °C; 25 mM Tris-HCl pH 7.5, 50 mM NaCl, 3 mM DTE; quadratic fit
# [7] = biological target: B1; test: fluorescence polarisation; competition: complex of 0.5 μM FITC-labelled Rheb peptide and 1 μM PDE6δ titrated with unlabelled mutant peptide; fitted with a competition model; 20 °C
# [8] = biological target: B1; test: fluorescence polarisation; stopped flow; kon: 0.2 μM mantGppNHp-loaded Arl protein with increasing PDE6δ; koff: 2 μM PDE6δ with 0.2 μM mantGppNHp-loaded Arl protein mixed with 200-fold excess of unlabelled Arl protein; Kd=koff/kon; 20 °C
# [9] = biological target: B1; test: fluorescence polarisation; stopped flow; complex of 1 μM PDE6δ with 0.2 μM labelled peptide mixed with 100-fold excess of unlabelled peptide, no Arl protein; 20 °C
binder,measurement,setting,value
B1,fold acceleration of koff by Arl3·GppNHp against no Arl,[1],~10000 fold
same,Kd,[2],5.8 nM
same,Kd,[3],217 nM
same,Kd,[4],149 nM
same,Kd,[5],316 nM
B2,Kd,[6],3.7 nM
B3,Kd,[7],12 nM
B4,fold difference in koff against Arl2^ΔN,[8],3 fold
B5,koff,[9],0.95 s⁻¹
same,Kd,[6],445 nM
